Publication PMC4858977

Assays:
Assay in all cases: MITOMI
RXRα = target: T1, RXRα (UniProt P28700); settings: On-chip MITOMI, 1 h equilibration; buffer, salt, pH and temperature not in the material (as ref. 23)
T1 sequence: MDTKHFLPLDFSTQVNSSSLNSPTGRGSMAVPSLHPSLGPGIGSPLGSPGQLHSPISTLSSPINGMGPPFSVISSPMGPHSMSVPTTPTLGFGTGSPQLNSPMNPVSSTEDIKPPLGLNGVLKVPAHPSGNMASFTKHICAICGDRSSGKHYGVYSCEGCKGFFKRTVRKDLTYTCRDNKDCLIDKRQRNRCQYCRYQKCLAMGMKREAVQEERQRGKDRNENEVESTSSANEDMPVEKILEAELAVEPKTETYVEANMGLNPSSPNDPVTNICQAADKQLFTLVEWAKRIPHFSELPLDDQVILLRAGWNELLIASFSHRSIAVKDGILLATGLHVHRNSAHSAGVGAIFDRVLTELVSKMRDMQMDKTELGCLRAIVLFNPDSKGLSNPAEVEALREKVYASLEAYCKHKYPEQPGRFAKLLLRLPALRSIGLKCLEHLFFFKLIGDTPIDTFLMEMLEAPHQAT

PPARγ = target: T2, PPARγ (UniProt P37238); settings: On-chip MITOMI, 1 h equilibration; buffer, salt, pH and temperature not in the material (as ref. 23)
T2 sequence: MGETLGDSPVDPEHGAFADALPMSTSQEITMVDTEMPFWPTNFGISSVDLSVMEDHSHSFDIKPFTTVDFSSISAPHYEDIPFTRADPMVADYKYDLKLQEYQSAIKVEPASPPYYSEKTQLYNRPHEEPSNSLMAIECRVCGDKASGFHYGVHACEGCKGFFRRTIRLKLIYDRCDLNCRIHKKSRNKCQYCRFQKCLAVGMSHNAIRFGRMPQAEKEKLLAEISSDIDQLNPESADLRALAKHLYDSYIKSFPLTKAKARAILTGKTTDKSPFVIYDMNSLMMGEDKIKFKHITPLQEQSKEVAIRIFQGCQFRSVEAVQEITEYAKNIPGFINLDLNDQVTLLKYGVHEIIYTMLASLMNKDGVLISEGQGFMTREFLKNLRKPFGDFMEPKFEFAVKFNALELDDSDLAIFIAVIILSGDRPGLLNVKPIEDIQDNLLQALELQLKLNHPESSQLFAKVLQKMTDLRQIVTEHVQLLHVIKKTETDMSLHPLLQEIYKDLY

[1] = target: PPARγ;RXRα (Mus musculus?;Mus musculus?) (UniProt P37238+P28700); settings: KDoD from cooperative model; On-chip MITOMI, 1 h equilibration; buffer, salt, pH and temperature not in the material (as ref. 23)

Row | Sequence | Ka (RXRα) [M⁻¹] | also measured
1 | AAAATAGGTCAAAGGTCAAA (double strand) [PPRE C4A] | 1.64e+08 | 
2 | AAACAAGGTCAAAGGTCAAA (double strand) [PPRE T5A] | 7.87e+07 | 
3 | AAACCAGGTCAAAGGTCAAA (double strand) [PPRE T5C] | 3.82e+08 | 
4 | AAACGAGGTCAAAGGTCAAA (double strand) [PPRE T5G] | 9.82e+07 | 
5 | AAACTAAGTCAAAGGTCAAA (double strand) [PPRE G7A] | 7.36e+06 | 
6 | AAACTACGTCAAAGGTCAAA (double strand) [PPRE G7C] | 6.66e+06 | 
7 | AAACTAGATCAAAGGTCAAA (double strand) [PPRE G8A] | 4.91e+06 | 
8 | AAACTAGCTCAAAGGTCAAA (double strand) [PPRE G8C] | 980000 | 
9 | AAACTAGGACAAAGGTCAAA (double strand) [PPRE T9A] | 2.04e+06 | 
10 | AAACTAGGCCAAAGGTCAAA (double strand) [PPRE T9C] | 5.86e+06 | 
11 | AAACTAGGGCAAAGGTCAAA (double strand) [PPRE T9G] | 9.19e+06 | 
12 | AAACTAGGTAAAAGGTCAAA (double strand) [PPRE C10A] | 3.42e+06 | 
13 | AAACTAGGTCAAAAGTCAAA (double strand) [PPRE G14A] | 2.41e+06 | 
14 | AAACTAGGTCAAACGTCAAA (double strand) [PPRE G14C] | 860000 | 
15 | AAACTAGGTCAAAGATCAAA (double strand) [PPRE G15A] | 2.73e+06 | 
16 | AAACTAGGTCAAAGCTCAAA (double strand) [PPRE G15C] | 218000 | 
17 | AAACTAGGTCAAAGGACAAA (double strand) [PPRE T16A] | 906000 | 
18 | AAACTAGGTCAAAGGCCAAA (double strand) [PPRE T16C] | 3.59e+06 | 
19 | AAACTAGGTCAAAGGGCAAA (double strand) [PPRE T16G] | 1.33e+07 | 

Row | Sequence | Ka (RXRα) [M⁻¹] | also measured
20 | AAACTAGGTCAAAGGTAAAA (double strand) [PPRE C17A] | 4.39e+06 | 
21 | AAACTAGGTCAAAGGTCAAA (double strand) [PPRE] | 1.98e+08 | Ka (PPARγ): 2.08e+06 M⁻¹; Ka [1]: 1.46e+22 M-2
22 | AAACTAGGTCAAAGGTCAAC (double strand) [PPRE A20C] | 9.97e+08 | 
23 | AAACTAGGTCAAAGGTCAAG (double strand) [PPRE A20G] | 1e+09 | 
24 | AAACTAGGTCAAAGGTCAAT (double strand) [PPRE A20T] | 2.79e+08 | 
25 | AAACTAGGTCAAAGGTCACA (double strand) [PPRE A19C] | 1.22e+08 | 
26 | AAACTAGGTCAAAGGTCAGA (double strand) [PPRE A19G] | 1.1e+07 | 
27 | AAACTAGGTCAAAGGTCATA (double strand) [PPRE A19T] | 3.78e+07 | 
28 | AAACTAGGTCAAAGGTGAAA (double strand) [PPRE C17G] | 1.32e+07 | 
29 | AAACTAGGTCAAAGTTCAAA (double strand) [PPRE G15T] | 4.44e+07 | 
30 | AAACTAGGTCAAATGTCAAA (double strand) [PPRE G14T] | 5.14e+06 | 
31 | AAACTAGGTCAACGGTCAAA (double strand) [PPRE A13C] | 1.05e+06 | 
32 | AAACTAGGTCAAGGGTCAAA (double strand) [PPRE A13G] | 1.61e+07 | 
33 | AAACTAGGTCAATGGTCAAA (double strand) [PPRE A13T] | 398000 | 
34 | AAACTAGGTCACAGGTCAAA (double strand) [PPRE A12C] | 7.95e+06 | 
35 | AAACTAGGTCAGAGGTCAAA (double strand) [PPRE A12G] | 2.69e+07 | 
36 | AAACTAGGTCATAGGTCAAA (double strand) [PPRE A12T] | 4.38e+07 | 
37 | AAACTAGGTCCAAGGTCAAA (double strand) [PPRE A11C] | 368000 | 
38 | AAACTAGGTCGAAGGTCAAA (double strand) [PPRE A11G] | 5.54e+06 | 

Row | Sequence | Ka (RXRα) [M⁻¹] | also measured
39 | AAACTAGGTCTAAGGTCAAA (double strand) [PPRE A11T] | 802000 | 
40 | AAACTAGGTGAAAGGTCAAA (double strand) [PPRE C10G] | 2.66e+07 | 
41 | AAACTAGGTTAAAGGTCAAA (double strand) [PPRE C10T] | 1.7e+07 | 
42 | AAACTAGTTCAAAGGTCAAA (double strand) [PPRE G8T] | 2.54e+07 | 
43 | AAACTATGTCAAAGGTCAAA (double strand) [PPRE G7T] | 9.75e+06 | 
44 | AAACTCGGTCAAAGGTCAAA (double strand) [PPRE A6C] | 8.8e+06 | 
45 | AAACTGGGTCAAAGGTCAAA (double strand) [PPRE A6G] | 1.73e+08 | 
46 | AAACTTGGTCAAAGGTCAAA (double strand) [PPRE A6T] | 4.68e+06 | 
47 | AAAGTAGGTCAAAGGTCAAA (double strand) [PPRE C4G] | 1.38e+08 | 
48 | AAATTAGGTCAAAGGTCAAA (double strand) [PPRE C4T] | 2.59e+08 | 
49 | AACCTAGGTCAAAGGTCAAA (double strand) [PPRE A3C] | 1.25e+08 | 
50 | AAGCTAGGTCAAAGGTCAAA (double strand) [PPRE A3G] | 5.27e+07 | 
51 | AATCTAGGTCAAAGGTCAAA (double strand) [PPRE A3T] | 1.98e+08 | 
52 | ACACTAGGTCAAAGGTCAAA (double strand) [PPRE A2C] | 4.33e+07 | 
53 | AGACTAGGTCAAAGGTCAAA (double strand) [PPRE A2G] | 2.05e+08 | 
54 | ATACTAGGTCAAAGGTCAAA (double strand) [PPRE A2T] | 1.45e+08 | 
55 | CAACTAGGTCAAAGGTCAAA (double strand) [PPRE A1C] | 1.17e+08 | 
56 | GAACTAGGTCAAAGGTCAAA (double strand) [PPRE A1G] | 1e+08 | 
57 | TAACTAGGTCAAAGGTCAAA (double strand) [PPRE A1T] | 1.01e+08 | 
